Results reported in paper PMC7072344, “Structure–Activity Relationship of HER2 Receptor Targeting Peptide and Its Derivatives in Targeted Tumor Therapy” (Biomolecules, 2020).

Target: T1, human epidermal growth factor 2 (HER2) receptor (human (endogenous in MDA-MB-453, …, UniProt P04626 23-1255))
T1 construct: HER2 (ErbB2), 185 kDa transmembrane glycoprotein, endogenous on human breast cancer cell lines; No isolated HER2 was tested; also called ErbB2; source: endogenous, on MDA-MB-453 breast cancer cells (highest HER2 expression); also on MDA-MB-435 Br and MCF-7 cells (medium HER2 expression)
Assay: flow cytometry on cells; MDA-MB-453 cells incubated with CF-labelled peptides, 12.5 µM, 3 h, 37 °C, 5 min trypsinization; read-out percentage of CF+ live cells and mean fluorescence intensity
Settings: one partner purified

fold increase of mean fluorescence intensity over P(AA): ~10 fold
B1: CF-KAAYSLGYYNPT-NH2 (peptide)
peptide: {5(6)‑carboxyfluorescein}-KAAYSLGYYNPT-NH2
notes: combined peptide: KAAYSL followed by GYYNPT; also called cP(AA)_P(YY); cP(AA)_(YY); source: synthetic peptide (Fmoc/tBu solid phase, RP-HPLC purified)
